Measured values from patent US11278600B2, “Human alpha-galactosidase variants” (Codexis, Inc., priority 2014, dated 2022).
Changes are numbered by the printed parent chain. Names may count otherwise.

B1: Variant 218: GLA variant; M322I/E367N/R373K relative to SEQ ID NO: 10 (protein)
chain: LDNGLARTPTMGWLHWERFMCNLDCQEEPDSCISEKLFMEMAELMVSEGWKDAGYEYLCIDDCWMAPQRDSEGRLQADPQRFPHGIRQLANYVHSKGLKLGIYADVGNKTCAGFPGSFGYYDIDAQTFADWGVDLLKFDGCYCDSLENLADGYKHMSLALNRTGRSIVYSCEWPLYMWPFQKPNYTEIRQYCNHWRNFADIDDSWASIKSILDWTSFNQERIVDVAGPGGWNDPDMLVIGNFGLSWNQQVTQMALWAIMAAPLFMSNDLRHISPQAKALLQDKDVIAINQDPLGKQGYQLRQGDNFEVWERPLSGLAWAVAIINRQEIGGPRSYTIAVASLGKGVACNPACFITQLLPVKRKLGFYNWTSRLKSHINPTGTVLLQLENTMQMSLKDLL
modifications: Synthetic Polypeptide sequence of Variant No. 218
B2: Variant 402: GLA variant; polypeptide sequence of SEQ ID NO: 42 (protein)
chain: B1 chain with L44R, S166P, F217R, N247D, Q302K, L316D, A337P, K362Q
modifications: Synthetic Polypeptide sequence of Variant No. 402

How the values were obtained:
[1] = Thermostability of purified GLA variants (Sypro Orange melting); assay type: physicochemical; conditions: purified enzyme 20 μg/ml in 1×PBS, 30 to 75° C. at 0.5° C./min
Protocol: (§1) GLA variants were purified from mammalian culture supernatant essentially as known in the art (See, Yasuda et al., Prot. Exp. Pur., 37, 499-506 [2004]). Concanavalin A resin (Sigma Aldrich) was equilibrated with 0.1 M sodium acetate, 0.1 M NaCl, 1 mM MgCl2, CaCl2, and MnCl2 pH 6.0 (Con A binding buffer). Supernatant was diluted 1:1 with binding buffer and loaded onto the column. The column was washed with 15 volumes of Concanavalin A binding buffer, and samples were eluted by the addition of Concanavalin A binding buffer including 0.9 M methyl-α-D-mannopyranoside and 0.9 M methyl-α-D-glucopyranoside. Eluted protein was concentrated and buffer exchanged three times using a Centricon® Plus-20 filtration unit with a 10 kDa molecular weight cut off (Millipore) into ThioGal binding buffer (25 mM citrate-phosphate, 0.1 M NaCl, pH 4.8). Buffer exchanged samples were loaded onto a Immobilized-D-galactose resin (Pierce) equilibrated with ThioGal binding buffer. The resin was washed with six volumes of ThioGal binding buffer and eluted with 25 mM citrate phosphate, 0.1 M NaCl, 0.1 M D-galactose, pH 5.5. […]
The thermostability of WT GLA (SEQ ID NO:5) and SEQ ID NO:42 were determined to assess their overall stability. […] The plates were heated from 30 to 75° C. at 0.5° C./min on a RT-PCR machine and Sypro Orange fluorescence was monitored. […]

[2] = Serum pharmacokinetics of purified GLA variants in rats; assay type: in vivo, Sprague-Dawley rats; conditions: rat, intravenous 1 mg/ml at 1 ml/kg; four hours post-administration
Protocol: Purified GLA variants produced as described in Example 4 were assessed for stability in the serum of live rats. WT GLA (SEQ ID NO:5) or SEQ ID NO:42 at 1 mg/ml were administered intravenously at 1 ml/kg to three naïve jugular vein cannulated Sprague-Dawley rats (7-8 weeks old) each. Prior to administration and at 5, 15, 30, 60, 120, and 240 minutes post-administration, […] was collected from each rat in an EDTA tube and centrifuged at 4° C. and 6000 rpm to generate >80 μL of serum per sample. Samples were frozen and stored on dry ice prior to analysis. For analysis, serum (10 μL) was added to 40 μL of 5 mM MUGal in McIlvaine buffer pH 4.4, and incubated at 37° C. for 1 h. Samples were quenched with 50 μL of 1 M sodium carbonate, diluted 1:100 in 1 M sodium carbonate and analyzed by fluorescence spectroscopy (Ex. 355, Em. 448). Four hours post-administration SEQ ID NO:42 retained 15.3% of maximal activity, while WT GLA retained only 0.66% (See, FIG. 9).

[3] = Thermostability of GLA variants expressed in HEK293T cells; assay type: biochemical; conditions: HEK293T supernatants; 30-54° C. for 1 h; residual MUGal activity
[4] = Activity on alternative substrate NBD-GB3 (TLC); assay type: biochemical; conditions: HEK293T culture supernatant, pH 4.8, 37° C., 1 h
Protocol: To confirm that improved activity in MUGal hydrolysis corresponded to more native substrates, mammalian cell-expressed GLA variants were assayed using N-Dodecanoyl-NBD-ceramide trihexoside (NBD-GB3) as substrate. HEK293T culture supernatant (10 μL), 100 mM sodium citrate pH 4.8 (80 μL), and NBD-GB3 (0.1 mg/ml) in 10% ethanol (10 μL) were added to microcentrifuge tubes. Samples were inverted to mix, and incubated at 37° C. for 1 h. The reaction was quenched via addition of 50 μL, methanol, diluted with 100 μL, chloroform, vortexed and the organic layer was isolated for analysis. The organic phase (10 μL) was spotted onto a silica plate and analyzed by thin layer chromatography (chloroform:methanol:water, 100:42:6), detecting the starting material and product using a 365 nm UV lamp.

[5] = pH stability of purified GLA variants over time; assay type: biochemical; conditions: purified enzyme; McIlvaine buffer pH 4.1 or 7.5, 0-24 h at 37° C.
Protocol: as §1, with “buffer.” for “buffer. The resin was washed with six volumes of ThioGal binding buffer and eluted with 25 mM citrate phosphate, 0.1 M NaCl, 0.1 M D-galactose, pH 5.5.”
To confirm that purified GLA variants show the desired pH stability observed after expression in yeast, WT GLA (SEQ ID NO:5) and SEQ ID NO:42 were incubated in acidic or basic buffers and analyzed for residual activity. […] Samples were quenched with 100 μL, of 1 M sodium carbonate, diluted 1:4 in 1 M sodium carbonate and analyzed by fluorescence spectroscopy (Ex. 355, Em. 448).

Row | Molecule | melting temperature [1] [°C] | GLA activity retained in serum, % of maximal activity [2] [%] | increase of Tm of the enzyme [3] [°C] | conversion of NBD-GB3 [4] | stability (residual activity) under acid and basic challenge compared to WT GLA [5]
1 | WT GLA: wild-type mature human alpha galactosidase A (GLA), polypeptide sequence of SEQ ID NO: 5 [reference compound] | 37 | 0.66 | – | – | –
2 | B1 | – | – | 4 | Significant conversion | –
3 | B2 | 55 | 15.3 | – | – | considerably more stable
